In US20240059760A1 (UNIVERSITY OF CHICAGO, published 2024):
Where two headings read alike, the source gives them in different places.

What was measured:
[1] = biological target: T1, Receptor Binding Domain (RBD) of SARS-CoV-2 S protein (SARS-CoV-2, UniProt P0DTC2 319-541)
[2] = biological target: T1, Receptor Binding Domain (RBD) of …; remark: listed apart in the source

| Binder | Kd [1] [nM] | koff [1] [s⁻¹] | kon [1] [M⁻¹ s⁻¹] | Kd [2] [nM] | koff [2] [s⁻¹] | kon [2] [M⁻¹ s⁻¹] |
| --- | --- | --- | --- | --- | --- | --- |
| sRBD7 Fab (Fab, V domains shown) VH: EVQLVESGGGLVQPGGSLRLSCAASGFNVYSSYIHWVRQAPGKGLEWVAYISPYYGSTYYADSVKGRFTISADTSKNTAYLQMNSLRAEDTAVYYCARYWSYGGMDYWGQGTLVTVSS VL: DIQMTQSPSSLSASVGDRVTITCRASQSVSSAVAWYQQKPGKAPKLLIYSASSLYSGVPSRFSGSRSGTDFTLTISSLQPEDFATYYCQQYYYGALITFGQGTKVEIKR | 2.55 | 0.00029 | 150000 | – | – | – |
| sRBD1.15 Fab (Fab, V domains shown) VH: EVQLVESGGGLVQPGGSLRLSCAASGFNFHNSYIHWVRQAPGKGLEWVASISSYSGYTYYADSVKGRFTISADTSKNTAYLQMNSLRAEDTAVYYCARSYQGQEALDYWGQGTLVTVSS VL: DIQMTQSPSSLSASVGDRVTITCRASQSVSSAVAWYQQKPGKAPKLLIYSASSLYSGVPSRFSGSRSGTDFTLTISSLQPEDFATYYCQQYLYFSLVTFGQGTKVEIKR | – | – | – | 0.1 | 0.00011 | 1e+06 |
